According to publication PMC6194269, “Structural and functional characterization of hMEX‐3C Ring finger domain as an E3 ubiquitin ligase” (Protein Science : A Publication of the Protein Society, 2018):

Target: the molecule itself
Test: SEC; GST fusion digested by TEV protease and loaded on an S75 column; molecular weight calculated from elution volume

B1: Ring finger domain of hMEX-3C (domain or fragment, human, UniProt Q5U5Q3 603-659, looked up)
chain: RRKHDCVICFENEVIAALVPCGHNLFCMECANKICEKRTPSCPVCQTAVTQAIQIHS
notes: two zinc ions per monomer; also called hMEX-3C Ring finger domain; hMEX-3C Ring homodimer; source: E. coli BL21 (DE3), purified (GST column, Superdex 75); GST fusion digested by TEV protease
In the case of B1, the “stoichiometry N” value is reported as 2.
